The supplement of paper PMC10266784

B1: library; numbered along this chain (parent)
chain: MAAAAAAAAEQQSSNGPVKKSMREKAVERRSVNKEHNSNFKAGYIPIDEDRLHKTGLRGRKGNLAICVIILLFILAVINLIITLVIWAVIRIGPNGCDSMEFHESGLLRFKQVSDMGVIHPLYKSTVGGRRNENLVITGNNQPIVFQQGTTKLSVENNKTSITSDIGMQFFDPRTQNILFSTDYETHEFHLPSGVKSLNVQKASTERITSNATSDLNIKVDGRAIVRGNEGVFIMGKTIEFHMGGNMELKAENSIILNGSVMVSTTRLPSSSSGDQLGSGDWVRYKLCMCADGTLFKVQVTSQNMGCQISDNPCGNTH

Variants of: B1
Test: SGCB cell-surface expression functional score (HA stain, bin4 vs bin1, normalised to synonymous) (log10 ratio); higher = more cell-surface SGCB (functional)
How it was run: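 The functional score is a log ratio of variant frequency in the highest versus the lowest intensity bin, expressed as a median over codons and duplicate transductions. Codon-saturation libraries of HA-tagged, YFP-fused human beta-sarcoglycan were transduced by lentivirus at MOI <0.1 into HEK293 cells stably expressing alpha-, gamma- and delta-sarcoglycan, and the cells were stained on ice with Alexa Fluor 647 anti-HA, fixed and sorted into four 5% intensity bins before amplicon sequencing. Synonymous variants were scaled to mean 0, SD 0.5 within each section.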

N141M and R223K are within 0.2 log units of each other in “SGCB cell-surface expression functional score (log10)” value: 0.71 for the first, 0.86 for the second.

First: M247N
Second: E28R
The “SGCB cell-surface expression functional score (log10)” value of the first is lower: -0.35 for the first, 0.1 for the second.

First: T182S
Second: L198N
The “SGCB cell-surface expression functional score (log10)” value of the first is higher: -1.55 for the first, -1.95 for the second.

Going from V195W to H103M, the “SGCB cell-surface expression functional score (log10)” value falls from 0.45 to -0.23.

Going from Q176Y to R58W, the “SGCB cell-surface expression functional score (log10)” value rises from -0.78 to -0.26.

First: N134A
Second: V113N
The “SGCB cell-surface expression functional score (log10)” value of the first is higher: 0.39 for the first, -0.49 for the second.

Compared with V77K, H103Q is higher in “SGCB cell-surface expression functional score (log10)” value: -0.21 for the first, 0.36 for the second.

Going from N140L to M235G, the “SGCB cell-surface expression functional score (log10)” value rises from -0.39 to 0.75.

Compared with G194Y, N258F is higher in “SGCB cell-surface expression functional score (log10)” value: -1.13 for the first, -0.09 for the second.

First: G106L
Second: M262V
The “SGCB cell-surface expression functional score (log10)” value of the first is lower: -1.62 for the first, 0.78 for the second.

Compared with F40N, A291C is lower in “SGCB cell-surface expression functional score (log10)” value: -0.16 for the first, -0.42 for the second.

Going from F180P to I47K, the “SGCB cell-surface expression functional score (log10)” value rises from -1.31 to 0.52.

Going from E206G to I137Q, the “SGCB cell-surface expression functional score (log10)” value falls from -0.37 to -1.71.

Going from L80S to I92Q, the “SGCB cell-surface expression functional score (log10)” value falls from 0.2 to -1.97.

Compared with N63G, V68Y is lower in “SGCB cell-surface expression functional score (log10)” value: 0.13 for the first, -0.25 for the second.

G43Y and D215P are within 0.2 log units of each other in “SGCB cell-surface expression functional score (log10)” value: -0.59 for the first, -0.55 for the second.

K124L and G56V are within 0.2 log units of each other in “SGCB cell-surface expression functional score (log10)” value: 0.07 for the first, 0.05 for the second.

Going from M235A to T301H, the “SGCB cell-surface expression functional score (log10)” value falls from 0.36 to -0.15.

Compared with V300E, V263T is higher in “SGCB cell-surface expression functional score (log10)” value: -0.69 for the first, 0.4 for the second.

G293N and I82H are within 0.2 log units of each other in “SGCB cell-surface expression functional score (log10)” value: 0.21 for the first, 0.12 for the second.

Going from I69H to H187N, the “SGCB cell-surface expression functional score (log10)” value falls from 0.03 to -0.57.

First: A291R
Second: V85P
The “SGCB cell-surface expression functional score (log10)” value of the first is higher: 0.01 for the first, -1.14 for the second.

Going from V127H to G62R, the “SGCB cell-surface expression functional score (log10)” value rises from -1.08 to 0.23.

A3M and T160L are within 0.2 log units of each other in “SGCB cell-surface expression functional score (log10)” value: 0.11 for the first, 0.17 for the second.

First: T238D
Second: N141R
The “SGCB cell-surface expression functional score (log10)” value of the first is higher: 0.72 for the first, 0.07 for the second.

Compared with M235Y, K61D is lower in “SGCB cell-surface expression functional score (log10)” value: 0.92 for the first, -0.36 for the second.

L249Q and N95C are within 0.2 log units of each other in “SGCB cell-surface expression functional score (log10)” value: -0.07 for the first, -0.17 for the second.

Compared with G228A, Q276N is lower in “SGCB cell-surface expression functional score (log10)” value: 0.3 for the first, -0.22 for the second.

Going from A224D to I234P, the “SGCB cell-surface expression functional score (log10)” value rises from -0.97 to -0.22.

Going from R30S to K61L, the “SGCB cell-surface expression functional score (log10)” value rises from 0.04 to 0.26.

First: K54D
Second: R109F
The “SGCB cell-surface expression functional score (log10)” value of the first is lower: -0.71 for the first, -0.2 for the second.

Going from D115Q to I74K, the “SGCB cell-surface expression functional score (log10)” value rises from -0.98 to 0.07.

Compared with V77G, S114H is lower in “SGCB cell-surface expression functional score (log10)” value: -0.14 for the first, -1.62 for the second.

First: I166H
Second: N177I
The “SGCB cell-surface expression functional score (log10)” value of the first is lower: -0.1 for the first, 0.12 for the second.

Compared with R51N, H190L is lower in “SGCB cell-surface expression functional score (log10)” value: 0.2 for the first, -0.13 for the second.

A42M and F241L are within 0.2 log units of each other in “SGCB cell-surface expression functional score (log10)” value: 0.33 for the first, 0.35 for the second.

Going from K111V to V18C, the “SGCB cell-surface expression functional score (log10)” value rises from -0.57 to -0.07.

Compared with N132A, T266D is higher in “SGCB cell-surface expression functional score (log10)” value: 0.15 for the first, 0.4 for the second.

Going from H242D to S210N, the “SGCB cell-surface expression functional score (log10)” value falls from 0.83 to -1.62.

Compared with H242V, I70Y is lower in “SGCB cell-surface expression functional score (log10)” value: 0.71 for the first, -0.14 for the second.

Going from K297L to Y123C, the “SGCB cell-surface expression functional score (log10)” value rises from -0.43 to 0.25.

With R267S the “SGCB cell-surface expression functional score (log10)” value was 0.28.
